Measurements as given in doi:10.1101/2025.01.22.633148 (bioRxiv, 2025).

Columns and labels:
[1] = target: Hsp70 nucleotide-binding domain (Hsp70NBD); assay: ITC
[2] = target: Human Rpn1, full-length, recombinant (human, UniProt Q13200 1-908); assay: ITC
Sequence of Human Rpn1, full-length, recombinant (Q13200 whole entry): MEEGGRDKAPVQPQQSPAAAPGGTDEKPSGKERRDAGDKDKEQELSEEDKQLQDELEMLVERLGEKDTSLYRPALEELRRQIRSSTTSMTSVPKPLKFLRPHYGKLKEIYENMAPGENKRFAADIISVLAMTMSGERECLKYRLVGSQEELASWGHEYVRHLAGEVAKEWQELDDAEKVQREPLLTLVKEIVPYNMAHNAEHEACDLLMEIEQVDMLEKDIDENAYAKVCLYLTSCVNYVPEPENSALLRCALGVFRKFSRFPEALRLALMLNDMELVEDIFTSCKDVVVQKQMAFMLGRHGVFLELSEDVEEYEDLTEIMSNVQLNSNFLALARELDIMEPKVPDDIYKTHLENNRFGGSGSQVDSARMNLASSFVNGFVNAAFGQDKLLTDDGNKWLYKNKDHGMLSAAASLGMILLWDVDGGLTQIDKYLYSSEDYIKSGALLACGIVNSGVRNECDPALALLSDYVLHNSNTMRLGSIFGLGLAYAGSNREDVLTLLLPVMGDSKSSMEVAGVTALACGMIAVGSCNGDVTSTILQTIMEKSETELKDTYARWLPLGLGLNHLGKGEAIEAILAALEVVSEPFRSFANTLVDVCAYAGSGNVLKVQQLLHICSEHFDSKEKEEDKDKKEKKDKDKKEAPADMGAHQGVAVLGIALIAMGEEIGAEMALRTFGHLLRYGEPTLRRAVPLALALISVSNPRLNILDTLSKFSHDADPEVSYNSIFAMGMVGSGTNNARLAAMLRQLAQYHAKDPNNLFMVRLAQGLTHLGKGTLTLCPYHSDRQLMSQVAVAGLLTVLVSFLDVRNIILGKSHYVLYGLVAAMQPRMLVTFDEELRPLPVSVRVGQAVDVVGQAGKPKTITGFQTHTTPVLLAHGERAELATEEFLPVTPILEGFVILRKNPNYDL

B1: Bag1 (Bcl-2 associated anthanogene 1), full-length (natural protein)
chain: MNRSQEVTRDEESTRSEEVTREEMAAAGLTVTVTHSNEKHDLHVTSQQGSSEPVVQDLAQVVEEVIGVPQSFQKLIFKGKSLKEMETPLSALGIQDGCRVMLIGKKNSPQEEVELKKLKHLEKSVEKIADQLEELNKELTGIQQGFLPKDLQAEALCKLDRRVKATIEQFMKILEEIDTLILPENFKDSRLKRKGLVKKVQAFLAECDTVEQNICQETERLQSTNFALAE
[1]
  Kd: 50 nM
[2]
  Kd: ~500 nM
